Results published in article doi:10.1101/2022.03.30.486377 (bioRxiv, 2022).

Columns and labels:
[1] = target: HCoV-OC43 S protein (S1+S2 ECD) (Human coronavirus OC43 (HCoV-OC43)., UniProt P36334); assay: ELISA
[2] = target: HCoV-NL63 S protein (S1+S2 ECD) (HCoV-NL63, strain not named (stand-in: …, UniProt Q6Q1S2)); assay: ELISA
[3] = target: HCoV-229E S protein (S1+S2 ECD) (HCoV-229E, strain not named (stand-in: …, UniProt P15423)); assay: ELISA
[4] = target: MERS-CoV S protein (S1+S2 ECD) (MERS-CoV; strain  in paper, …, UniProt K0BRG7); assay: ELISA
[5] = target: SARS-CoV-2 (2019-nCoV) S protein (S1+S2 ECD) (SARS-CoV-2 (2019-nCoV), UniProt P0DTC2); assay: ELISA
[6] = target: HCoV-HKU1 (isolate N5) S protein (S1+S2 ECD) (Human coronavirus HKU1 (isolate N5) …, UniProt Q0ZME7); assay: ELISA
HCoV-HKU1 (isolate N5) S protein (S1+S2 ECD), sequence (Q0ZME7 13-1295): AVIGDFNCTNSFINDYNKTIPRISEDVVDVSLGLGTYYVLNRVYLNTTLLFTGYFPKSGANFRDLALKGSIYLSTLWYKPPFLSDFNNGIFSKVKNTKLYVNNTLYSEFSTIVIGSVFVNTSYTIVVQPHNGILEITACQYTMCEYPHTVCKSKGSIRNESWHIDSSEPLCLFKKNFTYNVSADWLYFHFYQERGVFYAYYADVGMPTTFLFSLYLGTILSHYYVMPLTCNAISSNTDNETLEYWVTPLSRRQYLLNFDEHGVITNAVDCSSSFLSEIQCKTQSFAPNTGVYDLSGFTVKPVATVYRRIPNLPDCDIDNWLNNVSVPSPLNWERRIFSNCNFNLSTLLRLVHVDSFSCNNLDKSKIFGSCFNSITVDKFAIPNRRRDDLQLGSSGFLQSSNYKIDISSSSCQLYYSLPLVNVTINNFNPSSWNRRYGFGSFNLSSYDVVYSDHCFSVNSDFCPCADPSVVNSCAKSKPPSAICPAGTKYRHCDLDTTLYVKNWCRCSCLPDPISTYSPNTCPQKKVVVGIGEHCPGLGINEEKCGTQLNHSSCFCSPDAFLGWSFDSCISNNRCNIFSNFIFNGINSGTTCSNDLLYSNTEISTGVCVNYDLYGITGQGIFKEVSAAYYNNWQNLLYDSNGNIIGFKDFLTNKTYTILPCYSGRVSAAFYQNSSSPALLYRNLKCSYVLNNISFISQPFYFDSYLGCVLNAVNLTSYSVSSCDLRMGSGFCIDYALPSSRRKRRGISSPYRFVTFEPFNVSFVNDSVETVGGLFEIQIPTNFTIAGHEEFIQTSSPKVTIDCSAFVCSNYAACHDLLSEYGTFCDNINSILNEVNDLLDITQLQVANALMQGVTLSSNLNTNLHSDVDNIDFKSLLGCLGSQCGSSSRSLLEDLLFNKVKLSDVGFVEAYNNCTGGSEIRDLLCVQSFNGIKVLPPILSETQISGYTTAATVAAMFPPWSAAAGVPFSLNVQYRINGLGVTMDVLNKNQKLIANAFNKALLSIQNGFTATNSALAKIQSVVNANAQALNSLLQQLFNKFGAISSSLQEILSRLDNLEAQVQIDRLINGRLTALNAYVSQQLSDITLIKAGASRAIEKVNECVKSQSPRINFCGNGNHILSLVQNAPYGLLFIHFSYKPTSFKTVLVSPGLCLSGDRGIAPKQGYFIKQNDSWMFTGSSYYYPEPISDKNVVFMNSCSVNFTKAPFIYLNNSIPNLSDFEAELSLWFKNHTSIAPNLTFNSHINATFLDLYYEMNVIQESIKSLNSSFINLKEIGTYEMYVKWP

[7] = target: T1, SARS-CoV-2 fusion peptide K811[…]825 (SARS-CoV-2); assay: ELISA
T1 chain: KPSKRSFIEDLLFNK

[8] = target: NL63 S on 293T cells (Human coronavirus NL63 (HCoV-NL63)., UniProt Q6Q1S2); assay: flow cytometry on cells
[9] = target: 229E S on 293T cells (Human coronavirus 229E (HCoV-229E)., UniProt P15423); assay: flow cytometry on cells
[10] = target: SARS-CoV-2 Wuhan-Hu-1 S on 293T cells (SARS-CoV-2 Wuhan-Hu-1, UniProt P0DTC2); assay: flow cytometry on cells
[11] = target: T1, SARS-CoV-2 fusion peptide K811[…]825; assay: crystal structure

Measured: binding result

HCoV-NL63 S protein (S1+S2 ECD) (HCoV-NL63, strain not named, sequence (Q6Q1S2 whole entry, looked up, the tested form may be a part): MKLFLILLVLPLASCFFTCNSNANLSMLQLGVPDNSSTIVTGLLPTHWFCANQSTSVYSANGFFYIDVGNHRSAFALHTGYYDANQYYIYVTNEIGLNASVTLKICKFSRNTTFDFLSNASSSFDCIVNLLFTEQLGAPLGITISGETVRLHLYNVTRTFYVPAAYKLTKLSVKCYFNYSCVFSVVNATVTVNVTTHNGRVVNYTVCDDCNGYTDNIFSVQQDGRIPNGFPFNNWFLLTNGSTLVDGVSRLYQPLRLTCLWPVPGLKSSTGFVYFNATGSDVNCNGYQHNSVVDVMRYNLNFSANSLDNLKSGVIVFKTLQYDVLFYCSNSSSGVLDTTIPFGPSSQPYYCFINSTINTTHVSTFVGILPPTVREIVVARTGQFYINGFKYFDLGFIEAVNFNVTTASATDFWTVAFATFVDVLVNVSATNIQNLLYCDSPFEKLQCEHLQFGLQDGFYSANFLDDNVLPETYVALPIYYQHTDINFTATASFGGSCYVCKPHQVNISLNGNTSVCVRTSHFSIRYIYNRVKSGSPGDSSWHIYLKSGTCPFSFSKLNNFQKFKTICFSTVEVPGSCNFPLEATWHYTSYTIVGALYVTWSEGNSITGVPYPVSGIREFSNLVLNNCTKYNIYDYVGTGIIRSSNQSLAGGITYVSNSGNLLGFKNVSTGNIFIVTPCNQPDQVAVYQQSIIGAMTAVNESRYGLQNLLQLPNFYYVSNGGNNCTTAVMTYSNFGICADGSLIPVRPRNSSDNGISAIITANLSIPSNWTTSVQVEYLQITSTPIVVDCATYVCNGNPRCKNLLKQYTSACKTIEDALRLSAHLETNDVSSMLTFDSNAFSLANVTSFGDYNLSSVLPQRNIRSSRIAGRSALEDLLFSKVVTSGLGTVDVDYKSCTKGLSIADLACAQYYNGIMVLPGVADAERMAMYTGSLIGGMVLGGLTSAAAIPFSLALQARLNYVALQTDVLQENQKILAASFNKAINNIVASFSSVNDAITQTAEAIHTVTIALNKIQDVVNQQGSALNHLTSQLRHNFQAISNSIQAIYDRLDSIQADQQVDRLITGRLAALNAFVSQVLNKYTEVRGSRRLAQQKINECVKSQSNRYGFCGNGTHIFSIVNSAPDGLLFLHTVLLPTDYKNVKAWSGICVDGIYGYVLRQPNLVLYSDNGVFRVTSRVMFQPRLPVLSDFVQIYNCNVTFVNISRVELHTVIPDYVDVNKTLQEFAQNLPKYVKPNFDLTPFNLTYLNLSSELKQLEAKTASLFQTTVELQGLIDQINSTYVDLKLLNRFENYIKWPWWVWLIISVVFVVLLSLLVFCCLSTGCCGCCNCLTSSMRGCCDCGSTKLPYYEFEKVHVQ
HCoV-229E S protein (S1+S2 ECD) (HCoV-229E, strain not named, sequence (P15423 whole entry, looked up, the tested form may be a part): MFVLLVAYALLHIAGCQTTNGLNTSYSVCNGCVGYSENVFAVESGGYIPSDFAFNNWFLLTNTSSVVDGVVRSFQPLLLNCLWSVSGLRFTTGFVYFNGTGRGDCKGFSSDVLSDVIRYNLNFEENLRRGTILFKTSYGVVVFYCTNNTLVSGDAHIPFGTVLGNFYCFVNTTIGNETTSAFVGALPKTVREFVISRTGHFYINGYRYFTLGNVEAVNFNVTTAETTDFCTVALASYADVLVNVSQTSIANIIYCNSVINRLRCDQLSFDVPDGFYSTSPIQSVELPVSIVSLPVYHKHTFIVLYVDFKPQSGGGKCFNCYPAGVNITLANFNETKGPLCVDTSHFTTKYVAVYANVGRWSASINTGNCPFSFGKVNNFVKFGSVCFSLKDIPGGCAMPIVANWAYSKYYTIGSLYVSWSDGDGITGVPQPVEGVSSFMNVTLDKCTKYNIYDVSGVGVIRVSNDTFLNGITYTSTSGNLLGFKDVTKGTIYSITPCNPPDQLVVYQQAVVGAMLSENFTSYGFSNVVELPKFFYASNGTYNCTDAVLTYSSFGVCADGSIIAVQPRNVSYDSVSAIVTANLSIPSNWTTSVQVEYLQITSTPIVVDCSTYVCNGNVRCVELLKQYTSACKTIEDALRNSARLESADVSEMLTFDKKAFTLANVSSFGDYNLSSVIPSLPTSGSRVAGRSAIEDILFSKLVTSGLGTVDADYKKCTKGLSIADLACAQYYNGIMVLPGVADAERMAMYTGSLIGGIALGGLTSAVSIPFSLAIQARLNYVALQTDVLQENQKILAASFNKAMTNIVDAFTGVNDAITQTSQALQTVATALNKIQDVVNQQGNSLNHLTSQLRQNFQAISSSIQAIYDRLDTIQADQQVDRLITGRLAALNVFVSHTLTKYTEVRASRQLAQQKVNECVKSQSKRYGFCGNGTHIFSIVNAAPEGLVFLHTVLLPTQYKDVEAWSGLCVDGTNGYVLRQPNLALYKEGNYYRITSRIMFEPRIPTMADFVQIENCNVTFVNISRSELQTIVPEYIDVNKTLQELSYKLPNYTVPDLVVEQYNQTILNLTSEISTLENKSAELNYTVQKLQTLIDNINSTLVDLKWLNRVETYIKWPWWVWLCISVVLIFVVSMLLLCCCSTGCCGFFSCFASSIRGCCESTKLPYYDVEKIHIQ
HCoV-OC43 S protein (S1+S2 ECD), sequence (P36334 14-1297): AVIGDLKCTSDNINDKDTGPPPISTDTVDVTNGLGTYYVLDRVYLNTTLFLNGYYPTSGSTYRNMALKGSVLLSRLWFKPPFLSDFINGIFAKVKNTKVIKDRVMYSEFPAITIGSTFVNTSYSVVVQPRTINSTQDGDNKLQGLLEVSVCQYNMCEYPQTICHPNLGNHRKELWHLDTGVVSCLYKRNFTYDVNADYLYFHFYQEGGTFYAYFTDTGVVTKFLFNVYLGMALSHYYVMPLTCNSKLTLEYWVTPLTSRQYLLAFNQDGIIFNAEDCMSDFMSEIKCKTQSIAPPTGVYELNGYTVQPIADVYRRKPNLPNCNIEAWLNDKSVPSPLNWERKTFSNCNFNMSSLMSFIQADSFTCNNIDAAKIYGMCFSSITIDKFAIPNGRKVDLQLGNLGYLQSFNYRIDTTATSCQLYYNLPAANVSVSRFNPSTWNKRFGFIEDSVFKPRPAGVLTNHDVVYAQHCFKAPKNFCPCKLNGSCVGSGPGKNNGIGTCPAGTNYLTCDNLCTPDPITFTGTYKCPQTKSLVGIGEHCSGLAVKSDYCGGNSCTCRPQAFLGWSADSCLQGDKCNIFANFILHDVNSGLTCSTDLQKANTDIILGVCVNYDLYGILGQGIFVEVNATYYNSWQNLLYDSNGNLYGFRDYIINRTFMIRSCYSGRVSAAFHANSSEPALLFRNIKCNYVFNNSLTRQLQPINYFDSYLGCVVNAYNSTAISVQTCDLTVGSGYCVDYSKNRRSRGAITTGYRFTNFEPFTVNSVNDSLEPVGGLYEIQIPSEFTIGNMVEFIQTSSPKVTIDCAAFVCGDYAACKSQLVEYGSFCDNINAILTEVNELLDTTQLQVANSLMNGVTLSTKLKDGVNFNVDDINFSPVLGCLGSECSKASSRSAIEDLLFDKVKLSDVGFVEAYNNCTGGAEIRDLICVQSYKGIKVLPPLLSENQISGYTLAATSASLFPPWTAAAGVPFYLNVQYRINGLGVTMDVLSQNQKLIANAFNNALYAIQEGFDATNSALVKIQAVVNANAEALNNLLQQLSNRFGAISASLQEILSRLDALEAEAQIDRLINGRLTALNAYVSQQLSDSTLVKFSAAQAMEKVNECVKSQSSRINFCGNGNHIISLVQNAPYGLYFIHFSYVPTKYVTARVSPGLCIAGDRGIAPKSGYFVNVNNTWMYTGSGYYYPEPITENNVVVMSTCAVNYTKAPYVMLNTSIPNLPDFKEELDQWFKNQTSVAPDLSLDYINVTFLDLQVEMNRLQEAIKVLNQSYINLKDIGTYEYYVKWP

B1: VN01H1 mAb (antibody, V domains shown)
VH: EVQLVESGGGLVLPGGSLRLSCSASGFTFSDFSMHWVRQSPGKGLEYVSAITSSGSSTYYPDSVKGRFTISRDNSKNTLYLQMGSLRVEDTAVYWCVKNSDVFRFPHLYFDVWGRGTLVTVSS
VL: not shown
not listed: [11]
binds: all other assays above

B2: VN01H1 Fab (Fab, V domains shown)
VH: EVQLVESGGGLVLPGGSLRLSCSASGFTFSDFSMHWVRQSPGKGLEYVSAITSSGSSTYYPDSVKGRFTISRDNSKNTLYLQMGSLRVEDTAVYWCVKNSDVFRFPHLYFDVWGRGTLVTVSS
VL: not shown
binds: [11]

B3: C13C9 mAb (antibody, V domains shown)
VH: EVQLVQSGPEVKKPGTSARVSCKASGFTSKNTALQWVRQARGQPLEWMGWIDISNYITNYAQKFRGRLTITWDLSASMAYMELSSLRSEDTAVYYCAAVGKDDDVLTGGNKYFDHWGQGTLVTVSS
VL: SYELTQPPSVSVSPGQTARITCSGDALPKKYAYWYQQKSGQAPVLVIHEDDKRPSGIPGRFSASSSGTTATLTISGAQVEDEADYYCYSTDTNDNHAFGSGTKLTVL
not listed: [11]
binds: all other assays above

B4: C13C9 Fab (Fab, V domains shown)
VH: EVQLVQSGPEVKKPGTSARVSCKASGFTSKNTALQWVRQARGQPLEWMGWIDISNYITNYAQKFRGRLTITWDLSASMAYMELSSLRSEDTAVYYCAAVGKDDDVLTGGNKYFDHWGQGTLVTVSS
VL: SYELTQPPSVSVSPGQTARITCSGDALPKKYAYWYQQKSGQAPVLVIHEDDKRPSGIPGRFSASSSGTTATLTISGAQVEDEADYYCYSTDTNDNHAFGSGTKLTVL
binds: [11]

B5: C77G12 mAb (antibody, V domains shown)
VH: EVQLVESGGGVVQPGRSLRISCAVSGFTFGSYAMHWVRQAPGKGLEWVGVMSSDGHNEYYADSVKGRFTISRDNSRNKLYLEMNNLRVDDTAVFYCARGSDYVDDSPPLHYWGQGTLVTVSS
VL: DIQLTQSPSSLSASIGDRVTITCRASQDIANKLAWFQQAPGKAPKSLIYAASRLQSGVPSQFSGSGSGTDFTLTIESLQAGDFATYFCQQYDSFPFTFGPGTKVDVK
not listed: [11]
binds: all other assays above

B6: C77G12 Fab (Fab, V domains shown)
VH: EVQLVESGGGVVQPGRSLRISCAVSGFTFGSYAMHWVRQAPGKGLEWVGVMSSDGHNEYYADSVKGRFTISRDNSRNKLYLEMNNLRVDDTAVFYCARGSDYVDDSPPLHYWGQGTLVTVSS
VL: DIQLTQSPSSLSASIGDRVTITCRASQDIANKLAWFQQAPGKAPKSLIYAASRLQSGVPSQFSGSGSGTDFTLTIESLQAGDFATYFCQQYDSFPFTFGPGTKVDVK
binds: [11]

B7: VP12E7 mAb (antibody, V domains shown)
VH: QVQLVQSGGGVVQPGESLRLSCSGSGFTFNNYIMHWVRQAPGQGLDYVSGIGSDGRNTNYGDSVKGRFTISRDNSKDTLYLQMTSLRAEDTAFYYCVKGLDVLRFLDLSTPSGERLDAFDIWGQGTMVTVSS
VL: DIVMTQSPSFLSASVGDRVTITCRASQGISNYLAWYQQKPGKAPHLLIYAASTLQSGVPSRFSGSGSGTEFTLTISSLQPEDFATYYCQQLNSYPLFTFGPGTKVDIE
not listed: [11]
binds: all other assays above

B8: VP12E7 Fab (Fab, V domains shown)
VH: QVQLVQSGGGVVQPGESLRLSCSGSGFTFNNYIMHWVRQAPGQGLDYVSGIGSDGRNTNYGDSVKGRFTISRDNSKDTLYLQMTSLRAEDTAFYYCVKGLDVLRFLDLSTPSGERLDAFDIWGQGTMVTVSS
VL: DIVMTQSPSFLSASVGDRVTITCRASQGISNYLAWYQQKPGKAPHLLIYAASTLQSGVPSRFSGSGSGTEFTLTISSLQPEDFATYYCQQLNSYPLFTFGPGTKVDIE
binds: [11]

B9: C13B8 mAb (antibody, V domains shown)
VH: QVQLQESGPGLVQPSQTLTLTCTVSGDSISNEDYHWTWIRQHPGKGLEWMGYLQYSGNTNYNPSLKSRMTISVDTSKNQFSLRLNSVTAADTAVYFCATSIVLTGMSNKIQPFDYWGQGTLVTVSS
VL: SYELTQPPSVSVSPGQMARITCSGEALPKKYAYWYQQKGGQFPVLVIYKDTERPSGIPERFSGSSSGTIVTLTISGVQPEDEADYYCLSADTSGTWVFGGGTKLTVL
not listed: [11]
binds: all other assays above

B10: C13B8 Fab (Fab, V domains shown)
VH: QVQLQESGPGLVQPSQTLTLTCTVSGDSISNEDYHWTWIRQHPGKGLEWMGYLQYSGNTNYNPSLKSRMTISVDTSKNQFSLRLNSVTAADTAVYFCATSIVLTGMSNKIQPFDYWGQGTLVTVSS
VL: SYELTQPPSVSVSPGQMARITCSGEALPKKYAYWYQQKGGQFPVLVIYKDTERPSGIPERFSGSSSGTIVTLTISGVQPEDEADYYCLSADTSGTWVFGGGTKLTVL
binds: [11]
